Reference: patent US20250042956A1 (University of California, published 2025)

Biological target: T1, AT3G20740.1 FIE (Arabidopsis thaliana, UniProt Q9LT47 1-369)
T1 construct: Endogenous protein found by mass spectrometry; also called FERTILIZATION INDEPENDENT ENDOSPERM
T1 sequence (looked up): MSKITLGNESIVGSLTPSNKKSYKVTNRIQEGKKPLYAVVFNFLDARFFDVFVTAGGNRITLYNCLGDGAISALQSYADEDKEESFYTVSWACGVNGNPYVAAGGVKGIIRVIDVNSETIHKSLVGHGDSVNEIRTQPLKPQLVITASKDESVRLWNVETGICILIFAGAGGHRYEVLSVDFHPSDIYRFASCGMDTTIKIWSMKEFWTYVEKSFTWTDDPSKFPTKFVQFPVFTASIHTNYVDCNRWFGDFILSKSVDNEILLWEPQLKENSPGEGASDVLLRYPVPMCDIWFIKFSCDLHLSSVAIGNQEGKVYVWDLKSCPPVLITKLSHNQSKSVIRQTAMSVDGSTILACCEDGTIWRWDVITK
Experiment: IP-MS rep 2
Summary of the method: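 Peptide counts for co-purified proteins come from mass spectrometry of proteins pulled down from Arabidopsis floral buds with anti-FLAG magnetic beads. Ten grams of unopened buds from wild-type and FLAG-tagged transgenic lines were ground in liquid nitrogen and homogenised in 25 mL IP buffer. Lysates were held with 250 μL anti-FLAG M2 magnetic beads at 4° C for 2 hours, and bound proteins were eluted in TBS with 250 μg/mL 3×FLAG peptides.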

IP-MS count: 0
B1: TRBIP2 (bait of the TRBIP2 IP-MS) (other, not shown: small tags and cut ends)
chain: MATNACLESDSLLPPRKRLLAGFKNQNSRISNESPSPPFASSSSSTTTSNGSSASAVVHTHHLDHLLNDQTRSPEELAQASKATAALAVKVAKAARATANEKAIIASKAVAAAKNALELFASFPAAETVSCKEPRLIRAINNSPRVLTDCSGHRNKKQKTLTSTMNDGNDVAGVVDSDDGTRVNGKLLLCDNTLKEKTEEESSSLGKRRGRVKLPLSMCAYKDQENGITLEENNLSVSKSEGYNGGVAQVIERPSWKCQDLKSPECVKQNKVVRS
notes: tag and its position not described; also called TRBIP2-1; TRBIP2-2
